# Measured values reported in the nanobody polyreactivity screen of Harvey et al. (2022).
# Assay: yeast display, Sf9 membrane polyspecificity reagent, FACS + sequencing; frameworks hold sequencing errors
# Outline: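 A synthetic nanobody library was expressed on Saccharomyces cerevisiae BJ5465 by galactose induction for 36–48 hours. The library was stained for 1 hour at 4 °C with 10% biotinylated, detergent-solubilized Sf9 membrane reagent and enriched with streptavidin microbeads before FACS. Low and high (top ~1%) gates were set on anti-HA fluorescence for expression and streptavidin fluorescence for reagent binding, and each polyreactivity label reflects the gate of origin.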
row,Sequence,polyreactivity (PSR sort gate)
1,QVQLQESGGGLVQAGGSLRLSCAASGTISVHASMGWYRQAPGKERELVAGITDGANTYYADSVKGRFTISRDNSKNTVYLQMNSLKPEVTAVYYCAAYYGTEVHFTYWGLGTQVTVSS,low polyreactivity
2,QVQLQESGGGLVQAGGSLRLGCAASGYISGFNEMGWYRQAPGKGRELDAAITYGGITNYADSVKGRFTISRDNAKNTVYLQMNSLKPEDTAMYYCAAGDFDQSNHAYWGQDTQVTVSS,high polyreactivity
3,QVQLGESGGGLVQAGGSIRLSCAASGRTFYGYAMGWYRQAPGTERELVAAISYSGARTYYADSVKGRFTISRDNAKHTVNLQMNSLKPEDTAVYYCAATRAYWIGHLDYWGQGTQVTVSS,high polyreactivity
4,QVQLVESGGGLVQAGGSLRLSCAASGYTFVVYAMGWYRQAPGKERELVAGITRGSSTYYADSVKGRFTISRDNAKNTVYLQMNSLKPEDTAVYYCARGYTWFYAVWPEYDYWGQGTQVTVSS,high polyreactivity
5,QVQLVESGGGLVQAGGSLRLSCAASGRIFVVNAMGWYRQAPGKERELVATITRGASTYADSVKGRFTISRDNAKNTVYLQMNSLKPEDTAVYYCAARSGSWGQGTQVTVSS,high polyreactivity
6,QVQLVESGGGVVQAGGSLRLSCAASGIIFDGNAMGWYRQAPGKERELVAAITSSTDSTYYADSVKGRFTFSRDNAKNTVYLQMNSLKPEDTAVYYCAADYPSKTFDYWGQGTQVTVSS,low polyreactivity
7,QVQLVESGGGLVQAGGSLRLSCAASGSPFDYNAMGWYRPAPGKERELVAASDVSGDNTYYADSVKGRFTISRDNAKNTVYLQMNSLKPEETAVYYCNADDYWRGTSDYDYWGQGTQVTVSS,low polyreactivity
8,QVHLVESGGGLVQAGGSLRLSCAASGSTFTYYAMGWYRQAPGKERELVAAITGRGGRTYYADSVKGRFTISRDNAKNTVYLQMNSLKPEDTAVYYCARYPSSDTYWTKYDYWGQGTQVTVSS,high polyreactivity
9,QVQLVESGGGLVQAGGSLRLSCAASGRTFGTKTMGWYRQAPGKERELVAGISRSGGRTYYADSVKGRFTISRDNAKNTVYLQMNSLKPEDTAVYYCAAVSYYQPLRRIMDYWGQGTQVTVSS,high polyreactivity
10,QVQLVESGGGLVQAGGSLRLSCAASGRTFSYNTMGWYRQAPGTERELVARITWGGGSTNYADSVKGRFTISRDNAKNTFYLQMNSLKPEDTAVYYCAAGPSVPYGPQKVDYWGQGTQVTVSS,low polyreactivity
11,QVQLVESGGGLVQAGGSLRLSCAASGSIFYRNAMGGYRQAPGKERELVAAIAGTGGSTYYADSVKGRFTISRDNAKNTVYLQMNSLKPEDTAVYYCASGVTYRHDYWRQGTQVTVSS,high polyreactivity
12,QVQLVESGRGLVQAGGSLRLSCAASGFTFPNYAMGWYRQAPGKERELVASITRRAGSTNYADSVKGRFTISRDNAKNTVYLQMNSLKPEDTAVYYCNTVVLRYLYNYWGQGTQVTVSS,high polyreactivity
13,QVQLVESGGGLVQAGGSLRLSCAASGRIFRFYAMGWYRKAPGKERELVAAITRNVGSTFYADSVKGRFTISRDNAKKTVYLQMNSLKPADTAVYYCAAESDYYYRYTFDYWGQGTQVTVSS,low polyreactivity
14,QVQLVESRGRLLQAGGSLRLSCAASGRISHINAMGCSIQAPGKERELVAGIRGRGGSTYYADSVKGRFTISRDNAKNSVYLQMNSLKPEDTEVYYCAARGWELIRTDPFDYWGQGSQVTVSS,high polyreactivity
15,QVQLVESGGGLVQAGGSLRLSCAASGSTFYRNALGWYRQAPGKERELVARIYRSGSSTSYADSVKGRFTISRDYSKNTVYLQMNSLKPVDTAVYYCATVFVRYEMYWGQGTQLTVSS,high polyreactivity
16,QVQLVESGGGLVQAGGSLRLSCAASGIIFSYYVMGWYRQAPGKERELVAAISRSGAITYYADSVKGRFTISRDNAKNTVYLQMNSLKPEDTSVYYCAAELVPYSYHLRLDYWGQGTQVTVSS,high polyreactivity

row,Sequence,polyreactivity (PSR sort gate)
1,QVQIVESGGGLVQAGGSLRLSFAASGRIFYNYALGWYRQAPGKERELVAAISGSGGSTYYADSVKGRFTISRDNAKNTVYLQMNSLKPEVTAVYYCSTSGPQYYSRNFDYWGQGTQVTVSS,low polyreactivity
2,QDQLVESGGGLVQAGGSLRLSCAASGRTYGSYAMGWYRQAPGQEMELVAAISRSDGSTYYADSVKGRFTISRDNAKNTVYLQMNSLKPEDTAVYYCAAKRWYVSYDYDYWGQGTQVTVSS,high polyreactivity
3,QVQLVESGGGLVQAGGSLRLICDASGSIFEDYTMGWYRPGPGKERELVAASSRSGVRKYYADSVKGLFTISRDNAKNTVNLQMNSLKPEDTGVYYCARTRVASKGYDYWGQGTQVTVSS,high polyreactivity
4,QVQLVESGGGLVQAGGSLRLSCAASGFIFGYYTMGWYRQAPGKERELVASISSRGGSTFYADSVKGRFTISRDNAKNTVYLQMNSLKPEDTAVYYCAVRRGVYYYPYYYWGQGTQVTVSS,high polyreactivity
5,QDQLVESGGGLVQAGGSLRLSCAASGIIFQYYAMGWYRQAPGKERELVAAISWSGGSTYYADSVKGRFTISRDNAKNTVYLQMNSLKPEDTAVYYCAARSRSYWPYEGDYWGQGTQVTVSS,low polyreactivity
6,QVQLVESGGGLVQAGGSLRLSCAASGRTFGYYGLGWYRQAPGKERELVASINFSSGSTFYADSVKGRFTISRDNAKNTVYLQMNSLKPEDTAVYYCAARTDVGWYSRYGYWGQGTQVTVSS,low polyreactivity
7,QFQLVESGGGLVQAGGSLRLSCAASGRIFYRYAMGWYIQAPGKERELVAAITSGTSTNYADSVKGRFTISRDNAKNTVYVQMNSLKPEDTAVYYCAKRYYWKYAEYDYWGQGTLVTVSS,high polyreactivity
8,QVQLVESGGGLVQAGGSLRISCAASGYTFPFYTMGWYRQAPGKERELVAAINSGGSTYYADSVKGRFTISRDNAKNTVYLQMNRLKPEDTAVYYCAVEGGFRVRYQAQYRFYYWGQGTEVTVSS,high polyreactivity
9,QVQLVESGGGLVQAGGSLRLSCAASGSIFWLYAMGWYRQATGKERELVAAINWTGGSTNYADSVKGRFTISRDNAKNTVYLQMNSLKPEDTAVYFCAAEGVPDALDRVYWGQGTQVTVSS,low polyreactivity
10,QVQLVESGGGLVQAGGSLRLSCAASGNTFFVYAMGWYRQAPGKERELVADINWSTGSTYYADFVKGRFTISRDNAKNTVYLQMNSLKPEDTAVYYCAAEAYYYVIFHGSWYTDDYWGQGTQVTVSS,low polyreactivity
11,QVQLVESGGGLVQAGGSLRLSCAASGSTFAYNDMGWYRQAPGKERELVADIRSGGNTNYADSVKGRFTISRDNAKNTVYLHMNSLKPEATAVYYCATDGYRIDVYHPDYRYDYWGQGTQVTVSS,low polyreactivity
12,QVQLVESGGGLVQAGGSLRLSCAASGSTFGSYAMGWYIQAPGKERELVAAINWSGGITYYADSVKGRFTISRDNAKNTVYLQMNSLKPEDTAVYYCAADTRTYYYGSTYDYEYWGQGTQVTVSS,low polyreactivity
13,QVQLVESGGGLVQAGGSLRLSCAASGSIFGYYAMGWYTLAPGKERELVASISFSGGSTYYADSVKGRFTISRDNAKNTVYLQMNSLKPEDTAVYYCAKRPRFVYWKHGYWGQGTQVTVSS,high polyreactivity
14,QVQLVESGGGLVQAGGSLRLSCAASGRILYQYAMGWYRQAPGKVRELVASISGRSGRTRYADSVKGRFTISRDIAKNTVSLQMNSLKPEDTAVYYCYAGTSVLKYDYWGQGTQVTVSS,low polyreactivity
15,QVQRVESGGGLVQAGGSLRISCAASGSTFITYAMGWYRQERGKERELVAASRWSGGGTYYADSVKGRFTISRDNAKNTVYVQMNSLKPEDTAVYYCAADHFNYTTGRDYWGQGTQVTVSS,low polyreactivity
16,QVQLVESGGGLVQAGGSLRLSCAASGLTFNGYTMGWYRQAPGKERELVAGITHSGSTTYTDSVKGRFTISRDNAKNTVYLQMNSLKPEDTAVYYCNARLGKVRVKDDYWGQGTQVTVSS,low polyreactivity
